B1: STS165 (full-length IgG form) (antibody, V domains shown)
VH: EVQLVESGGGVVRPGGSLRLSCAASGFTFDDYGMSWVRQAPGKGLEWVSGINWNGGSTGYADSVKGRFTISRDNAKNSLYLQMNSLRAEDTALYHCARVGYCGGDCYSLSLAGFPDYWGQGTLVTVSS
VL: not shown
B2: STS165 Fab form (Fab, V domains shown)
VH: B1 VH
VL: not shown

Target: SARS-CoV-2 Omicron RBD protein (SARS-CoV-2 Omicron (BA.1), S371L | S373P | S375F)
Experiment: SPR

| Binder | fold decrease of binding affinity against WT RBD [fold] | fold decrease of binding affinity against the IgG form [fold] |
| --- | --- | --- |
| B1 | 3 |  |
| B2 |  | > 50 |
